Experimental data taken from patent US8653023.

Biological target: protein phosphatase 2A (PP2A), endogenous, in N27 cell lysate

B1: protein kinase C delta (PKCδ), endogenous, in N27 cell lysate (immortalized rat fetal mesencephalic dopaminergic neuronal cells) (protein)
chain: MAPFLRISFNSYELGSLQAEDDASQPFCAVKMKEALTTDRGKTLVQKKPTMYPEWKSTFDAHIYEGRVIQIVLMRAAEDPMSEVTVGVSVLAERCKKNNGKAEFWLDLQPQAKVLMCVQYFLEDGDCKQSMRSEEEAMFPTMNRRGAIKQAKIHYIKNHEFIATFFGQPTFCSVCKEFVWGLNKQGYKCRQCNAAIHKKCIDKIIGRCTGTATNSRDTIFQKERFNIDMPHRFKVYNYMSPTFCDHCGTLLWGLVKQGLKCEDCGMNVHHKCREKVANLCGINQKLLAEALNQVTQKASRKPETPETVGIYQGFEKKTAVSGNDIPDNNGTYGKIWEGSNRCRLENFTFQKVLGKGSFGKVLLAELKGKERYFAIKYLKKDVVLIDDDVECTMVEKRVLALAWENPFLTHLICTFQTKDHLFFVMEFLNGGDLMFHIQDKGRFELYRATFYAAEIICGLQFLHGKGIIYRDLKLDNVMLDKDGHIKIADFGMCKENIFGENRASTFCGTPDYIAPEILQGLKYSFSVDWWSFGVLLYEMLIGQSPFHGDDEDELFESIRVDTPHYPRWITKESKDIMEKLFERDPAKRLGVTGNIRLHPFFKTINWNLLEKRKVEPPFKPKVKSPSDYSNFDPEFLNEKPQLSFSDKNLIDSMDQTAFKGFSFVNPKYEQFLE
32P-kinase assay: phosphorylation of immunoprecipitated PP2A: PP2A immunoprecipitated from N27 cells was effectively phosphorylated by PKCδ immunoprecipitates
